Reference: patent publication US20220002427A1 (ENGMAB SARL, published 2022)
“And” between values parts separate entries of the source, which are not always exact repeats. Equal entries are not always repeated.

Assays:
human BCMA on cells [1] = target: T1, human BCMA on cells (human, UniProt Q02223 1-184); assay: flow cytometry on L363 multiple myeloma cells, PE anti-human Fc F(ab')2 detection; estimated EC50
T1 construct: whole, on cells; also called huBCMA on HEK cells; HEK-huBCMA cells
T1 sequence (looked up): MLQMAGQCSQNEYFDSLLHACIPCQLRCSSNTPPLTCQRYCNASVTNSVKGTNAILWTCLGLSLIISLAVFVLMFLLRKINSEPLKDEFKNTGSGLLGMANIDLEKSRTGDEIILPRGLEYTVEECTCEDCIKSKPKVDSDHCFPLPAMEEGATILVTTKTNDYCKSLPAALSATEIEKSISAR
Experimental: (§1) Briefly, cultured cells are harvested, counted and cell viability was evaluated using ViCell. Viable cells are then adjusted to 2×10⁶ cells per ml in BSA-containing FACS Stain Buffer (BD Biosciences). 100 μl of this cell suspension were further aliquoted per well into a round-bottom 96-well plate and incubated with 30 μl of the anti-BCMA antibodies or corresponding IgG control for 30 min at 4° c. All Anti-BCMA/anti-CD3 TCB antibodies (and TCB controls) were titrated and analyzed in final concentration range between 1-300 nM. Cells were then centrifuged (5 min, 350×g), washed with 120 μl/well FACS Stain Buffer (BD Biosciences), resuspended and incubated for an additional 30 min at 4° C. with fluorochrome-conjugated PE-conjugated AffiniPure F(ab′)2 Fragment goat anti-human IgG Fc Fragment Specific (Jackson Immuno Research Lab; 109-116-170). Cells were then washed twice with Stain Buffer (BD Biosciences), fixed using 100 ul BD Fixation buffer per well (#BD Biosciences, 554655) at 4° C. for 20 min, resuspended in 120 μl FACS buffer and analyzed using BD FACS CantoII.

human BCMA on cells [2] = target: T1, human BCMA on cells; assay: cell-based or functional assay
human BCMA on cells [3] = target: T1, human BCMA on cells; assay: cell-based or functional assay; remark: listed apart in the source
human BCMA on cells [4] = target: T1, human BCMA on cells; assay: flow cytometry on RPMI-8226 multiple myeloma cells, PE anti-human Fc F(ab')2 detection; asterisk: extrapolated by Prism
Experimental: as §1

human BCMA on cells [5] = target: T1, human BCMA on cells; assay: cell-based or functional assay; remark: listed apart in the source
human BCMA on cells [6] = target: T1, human BCMA on cells; assay: cell-based or functional assay; remark: listed apart in the source
human BCMA on cells [7] = target: T1, human BCMA on cells; assay: flow cytometry on H929 multiple myeloma cells, PE anti-human Fc F(ab')2 detection; estimated EC50
Experimental: as §1

human BCMA on cells [8] = target: T1, human BCMA on cells; assay: cell-based or functional assay; remark: listed apart in the source
human BCMA on cells [9] = target: T1, human BCMA on cells; assay: cell-based or functional assay; remark: listed apart in the source
human BCMA on cells [10] = target: T1, human BCMA on cells; assay: flow cytometry on RPMI-8226 multiple myeloma cells, PE anti-human Fc F(ab')2 detection; estimated EC50
Experimental: as §1

B1: 83A10-TCBcv (bispecific antibody, human IgG1, kappa, L234A L235A)
heavy 1: not shown
heavy 2: not shown
light 1: not shown
light 2: EVQLLESGGGLVQPGGSLRLSCAASGFTFSTYAMNWVRQAPGKGLEWVSRIRSKYNNYATYYADSVKGRFTISRDDSKNTLYLQMNSLRAEDTAVYYCVRHGNFGNSYVSWFAYWGQGTLVTVSSASVAAPSVFIFPPSDEQLKSGTASVVCLLNNFYPREAKVQWKVDNALQSGNSQESVTEQDSKDSTYSLSSTLTLSKADYEKHKVYACEVTHQGLSSPVTKSFNRGEC
notes: also called anti-BCMA/anti-CD3 T cell bispecific antibody 83A10-TCBcv
Human BCMA on cells [1]
  EC50: 17.4 nM and 2.51 µg/mL
Human BCMA on cells [2]
  Annexin-V positive JJN-3 cells (%) at 0.1 pM TCB, Experiment 2: 13.1%
  Annexin-V positive JJN-3 cells (%) at 1 pM TCB, Experiment 1: 11.4%
  Annexin-V positive JJN-3 cells (%) at 1 pM TCB, Experiment 2: 14.3%
  Annexin-V positive JJN-3 cells (%) at 10 pM TCB, Experiment 1: 11.1%
  Annexin-V positive JJN-3 cells (%) at 10 pM TCB, Experiment 2: 15.9%
  Annexin-V positive JJN-3 cells (%) at 100 pM TCB, Experiment 1: 9.12%
  Annexin-V positive JJN-3 cells (%) at 100 pM TCB, Experiment 2: 16.5%
  Annexin-V positive JJN-3 cells (%) at 1000 pM TCB, Experiment 1: 10.2%
  Annexin-V positive JJN-3 cells (%) at 1000 pM TCB, Experiment 2: 17.5%
  Annexin-V positive JJN-3 cells (%) at 10000 pM TCB, Experiment 1: 16.8%
  Annexin-V positive JJN-3 cells (%) at 10000 pM TCB, Experiment 2: 22.9%
Human BCMA on cells [3]
  EC50 of redirected T-cell killing of H929 cells (LDH release), Donor 1: 0.0039 nM
  EC50 of redirected T-cell killing of H929 cells (LDH release), Donor 3: 0.0085 nM
  EC50 of redirected T-cell killing of H929 cells (LDH release), Donor 4: 0.005 nM
  EC50 of redirected T-cell killing of H929 cells (LDH release), Donor 5: 0.0043 nM
  EC50 of redirected T-cell killing of H929 cells (LDH release), Donor 6: 0.0015 nM
Human BCMA on cells [4]
  EC50: > 300 nM and ~27200 µg/mL
Human BCMA on cells [5]
  EC50 of Granzyme B secretion, PBMC plus RPMI-8226 cells (CBA): 0.34 nM
  EC50 of IL-10 secretion, PBMC plus RPMI-8226 cells (CBA): 0.3 nM
  EC50 of TNF-α secretion, PBMC plus RPMI-8226 cells (CBA): 0.52 nM
Human BCMA on cells [6]
  Lysis of JJN-3 cells (%) at 0.1 pM TCB, Experiment 2: 22.3%
  Lysis of JJN-3 cells (%) at 1 pM TCB, Experiment 1: 24.4%
  Lysis of JJN-3 cells (%) at 1 pM TCB, Experiment 2: -1.88%
  Lysis of JJN-3 cells (%) at 10 pM TCB, Experiment 1: 41.9%
  Lysis of JJN-3 cells (%) at 10 pM TCB, Experiment 2: 39.6%
  Lysis of JJN-3 cells (%) at 100 pM TCB, Experiment 1: 18.4%
  Lysis of JJN-3 cells (%) at 100 pM TCB, Experiment 2: 20.1%
  Lysis of JJN-3 cells (%) at 1000 pM TCB, Experiment 1: 26.7%
  Lysis of JJN-3 cells (%) at 1000 pM TCB, Experiment 2: 25.3%
  Lysis of JJN-3 cells (%) at 10000 pM TCB, Experiment 1: 70.3%
  Lysis of JJN-3 cells (%) at 10000 pM TCB, Experiment 2: 51.2%
Human BCMA on cells [7]
  EC50: 12 nM and 1.73 µg/mL
Human BCMA on cells [8]
  EC50 of redirected T-cell killing of RPMI-8226 cells (LDH release), Donor 2: 0.621 nM
  EC50 of redirected T-cell killing of RPMI-8226 cells (LDH release), Donor 3: 0.229 nM
  EC50 of redirected T-cell killing of RPMI-8226 cells (LDH release), Donor 4: 0.035 nM
  EC50 of redirected T-cell killing of RPMI-8226 cells (LDH release), Donor 5: 0.0649 nM
Human BCMA on cells [9]
  EC50 of redirected T-cell killing of L363 cells (LDH release), Donor 1: 0.0168 nM
  EC50 of redirected T-cell killing of L363 cells (LDH release), Donor 2: 0.0478 nM
  EC50 of redirected T-cell killing of L363 cells (LDH release), Donor 3: 0.0284 nM
  EC50 of redirected T-cell killing of L363 cells (LDH release), Donor 4: 0.0126 nM
  EC50 of redirected T-cell killing of L363 cells (LDH release), Donor 5: 0.039 nM

B2: 42-TCBcv (bispecific antibody, human IgG1, kappa, L234A L235A)
heavy 1: not shown
heavy 2: EVQLLESGGGLVQPGGSLRLSCAASGFTFSDNAMGWVRQAPGKGLEWVSAISGPGSSTYYADSVKGRFTISRDNSKNTLYLQMNSLRAEDTAVYYCAKVLGWFDYWGQGTLVTVSSASTKGPSVFPLAPSSKSTSGGTAALGCLVEDYFPEPVTVSWNSGALTSGVHTFPAVLQSSGLYSLSSVVTVPSSSLGTQTYICNVNHKPSNTKVDEKVEPKSCDKTHTCPPCPAPEAAGGPSVFLFPPKPKDTLMISRTPEVTCVVVDVSHEDPEVKFNWYVDGVEVHNAKTKPREEQYNSTYRVVSVLTVLHQDWLNGKEYKCKVSNKALGAPIEKTISKAKGQPREPQVCTLPPSRDELTKNQVSLSCAVKGFYPSDIAVEWESNGQPENNYKTTPPVLDSDGSFFLVSKLTVDKSRWQQGNVFSCSVMHEALHNHYTQKSLSLSPGK
light 1: EIVLTQSPGTLSLSPGERATLSCRASQSVSDEYLSWYQQKPGQAPRLLIHSASTRATGIPDRFSGSGSGTDFTLAISRLEPEDFAVYYCQQYGYPPDFTFGQGTKVEIKRTVAAPSVFIFPPSDRKLKSGTASVVCLLNNFYPREAKVQWKVDNALQSGNSQESVTEQDSKDSTYSLSSTLTLSKADYEKHKVYACEVTHQGLSSPVTKSFNRGEC
light 2: B1 light 2
notes: also called 42-TCVcv; anti-BCMA/anti-CD3 T cell bispecific antibody of Mab42
Human BCMA on cells [1]
  EC50: 3.8 nM and 0.553 µg/mL
Human BCMA on cells [2]
  Annexin-V positive JJN-3 cells (%) at 0.1 pM TCB, Experiment 2: 12.8%
  Annexin-V positive JJN-3 cells (%) at 1 pM TCB, Experiment 1: 11.9%
  Annexin-V positive JJN-3 cells (%) at 1 pM TCB, Experiment 2: 13.5%
  Annexin-V positive JJN-3 cells (%) at 10 pM TCB, Experiment 1: 12.3%
  Annexin-V positive JJN-3 cells (%) at 10 pM TCB, Experiment 2: 13.6%
  Annexin-V positive JJN-3 cells (%) at 100 pM TCB, Experiment 1: 8.62%
  Annexin-V positive JJN-3 cells (%) at 100 pM TCB, Experiment 2: 14.4%
  Annexin-V positive JJN-3 cells (%) at 1000 pM TCB, Experiment 1: 16.8%
  Annexin-V positive JJN-3 cells (%) at 1000 pM TCB, Experiment 2: 21.7%
  Annexin-V positive JJN-3 cells (%) at 10000 pM TCB, Experiment 1: 24.8%
  Annexin-V positive JJN-3 cells (%) at 10000 pM TCB, Experiment 2: 26.9%
Human BCMA on cells [10]
  EC50: 13.2 nM and 1.91 µg/mL
Human BCMA on cells [3]
  EC50 of redirected T-cell killing of H929 cells (LDH release), Donor 1: 0.0097 nM
  EC50 of redirected T-cell killing of H929 cells (LDH release), Donor 3: 0.0117 nM
  EC50 of redirected T-cell killing of H929 cells (LDH release), Donor 4: 0.0072 nM
  EC50 of redirected T-cell killing of H929 cells (LDH release), Donor 5: 0.0068 nM
Human BCMA on cells [6]
  Lysis of JJN-3 cells (%) at 0.1 pM TCB, Experiment 2: 17.6%
  Lysis of JJN-3 cells (%) at 1 pM TCB, Experiment 1: 40.3%
  Lysis of JJN-3 cells (%) at 1 pM TCB, Experiment 2: 34.9%
  Lysis of JJN-3 cells (%) at 10 pM TCB, Experiment 1: 39%
  Lysis of JJN-3 cells (%) at 10 pM TCB, Experiment 2: 39.4%
  Lysis of JJN-3 cells (%) at 100 pM TCB, Experiment 1: 41.9%
  Lysis of JJN-3 cells (%) at 100 pM TCB, Experiment 2: 55.3%
  Lysis of JJN-3 cells (%) at 1000 pM TCB, Experiment 1: 84%
  Lysis of JJN-3 cells (%) at 1000 pM TCB, Experiment 2: 81.1%
  Lysis of JJN-3 cells (%) at 10000 pM TCB, Experiment 1: 92.9%
  Lysis of JJN-3 cells (%) at 10000 pM TCB, Experiment 2: 90.4%
Human BCMA on cells [7]
  EC50: 13.6 nM and 1.96 µg/mL
Human BCMA on cells [8]
  EC50 of redirected T-cell killing of RPMI-8226 cells (LDH release), Donor 2: 0.383 nM
  EC50 of redirected T-cell killing of RPMI-8226 cells (LDH release), Donor 3: 0.0187 nM
  EC50 of redirected T-cell killing of RPMI-8226 cells (LDH release), Donor 4: 0.0035 nM
  EC50 of redirected T-cell killing of RPMI-8226 cells (LDH release), Donor 5: 0.0015 nM
Human BCMA on cells [9]
  EC50 of redirected T-cell killing of L363 cells (LDH release), Donor 1: 0.0155 nM
  EC50 of redirected T-cell killing of L363 cells (LDH release), Donor 2: 0.0167 nM
  EC50 of redirected T-cell killing of L363 cells (LDH release), Donor 3: 0.0052 nM
  EC50 of redirected T-cell killing of L363 cells (LDH release), Donor 4: 0.0022 nM
  EC50 of redirected T-cell killing of L363 cells (LDH release), Donor 5: 0.0106 nM
